Laboratory results as given in article PMC4859805, “Molecular mechanism of activation-triggered subunit exchange in Ca^2+/calmodulin-dependent protein kinase II” (eLife, 2016).
Where a chain is given by its changes, count along the chain named. Names and notes keep the numbering of the source. Values joined by “and” are separate entries in the source; they are usually repeats but may differ in a detail not shown here. Equal values may be shown once. Square brackets hold non-standard residues; d marks the D form. Ends that are not written are not given here. pT = C[C@@H](OP(=O)(O)O)[C@H](N)C(=O)O

B1: Peptide D, unlabeled (human CaMKII-α 290-309 plus C-terminal cysteine, phosphorylated on Thr 306) (peptide)
peptide: LKKFNARRKLKGAILT[pT]MLAC
notes: human CaMKII-α, residues 290-309; added C-terminal cysteine; also called peptide phosphorylated on Thr 306; source: synthetic peptide, bought: Elim Biopharm, HPLC purified
B2: human CaMKII-α hub domain (domain or fragment, UniProt Q9UQM7 345-475, looked up)
chain: VRKQEIIKVTEQLIEAISNGDFESYTKMCDPGMTAFEPEALGNLVEGLDFHRFYFENLWSRNSKPVHTTILNPHIHLMGDESACIAYIRITQYLDAGGIPRTAQSEETRVWHRRDGKWQIVHFHRSGAPSV
notes: Ca2+/calmodulin-dependent protein kinase II alpha, human, hub domain; residues 345-475 are stated for the crystallization construct; The limits are stated only for the crystallization construct; also called the hub; isolated hub; source: E. coli BL21, purified (Ni-NTA, Q-FF, Superose 6); not shown: His6, N-terminal, cleaved; copies: 12 or 14
B3: human CaMKII-α hub domain F397A (domain or fragment, UniProt Q9UQM7 345-475, looked up)
chain: B2 chain with F53A
notes: Ca2+/calmodulin-dependent protein kinase II alpha, human, hub domain; residues 345-475 are stated for the crystallization construct of the wild type; residue number according to PDB 1HKX; also called F397A mutant hub; mutant hub; source: E. coli BL21, purified; not shown: His6, N-terminal, cleaved
B4: human CaMKII-α hub, crystallization construct with uncleaved expression tag (domain or fragment)
chain: GSSHHHHHHSSGLEVLFQGPHMVRKQEIIKVTEQLIEAISNGDFESYTKMCDPGMTAFEPEALGNLVEGLDFHRFYFENLWSRNSKPVHTTILNPHIHLMGDESACIAYIRITQYLDAGGIPRTAQSEETRVWHRRDGKWQIVHFHRSGAPSV
notes: uncleaved N-terminal expression tag: hexahistidine followed by a PreScission protease cleavage site; written as a part because it docks on the hub; Ca2+/calmodulin-dependent protein kinase II alpha, human, hub domain, residues 345-475; The 22-residue tag was left uncleaved for crystallization; also called dodecameric human CaMKII-α hub; source: E. coli BL21, purified (Ni-NTA, Q-FF, Superose 6, …)
B5: Peptide B (human CaMKII-α 290-309, unphosphorylated, unlabeled) (peptide)
peptide: LKKFNARRKLKGAILTTMLA
notes: also called the unphosphorylated peptide; wild type peptide; source: synthetic peptide, gift of Leta Nutt (St. Jude Children's Research Hospital), HPLC purified
B6: Peptide C, unlabeled (human CaMKII-α 290-309 plus C-terminal cysteine, phosphorylated on Thr 305) (peptide)
peptide: LKKFNARRKLKGAIL[pT]TMLAC
notes: human CaMKII-α, residues 290-309; added C-terminal cysteine; also called peptide phosphorylated on Thr 305; source: synthetic peptide, bought: Elim Biopharm, HPLC purified

Tests used:
[1] = molecular target: hub-△kinase (hub, linker and autoinhibitory segment of human CaMKII-α, without the kinase domain) (human); assay: SEC; analytical gel filtration, Superose 6 10/300, 25 mM Tris pH 8.0, 150 mM KCl, 10% glycerol, 1 mM TCEP or 2 mM DTT; injection at 700 nM subunits; tryptophan fluorescence
human CaMKII-α hub [2] = molecular target: T1, human CaMKII-α hub (Homo sapiens, UniProt Q9UQM7); assay: Fluorescence polarization, direct titration of hub to BODIPY-labeled peptide; settings: 2 nM Bodipy-FL-labeled peptide, hub 0-1000 μM, 25 mM Tris pH 8.0; non-saturable binding at high hub concentrations, value not relied on; read-out: KD derived from direct titration of the hub to the labeled peptide
T1 construct: human CaMKII-α hub consisted of residues 345–475 (UNIPROT id: Q9UQM7); 6-histidine tag with PreScission protease site (N, cleaved yes); made in house; host or cells: E. coli BL21
T1 sequence (Q9UQM7 345-475): B2 chain
Excerpt: To analyze the mechanism of subunit exchange, we focused initially on potential interactions between the CaM-binding element and the hub. We had shown previously that mutation of the CaM-binding element blocks subunit exchange, and that phosphorylation of Thr 305 and Thr 306 in the CaM-binding element potentiates exchange ([Stratton et al., 2014]). We prepared both phosphorylated and unphosphorylated forms of peptides spanning the CaM-binding element of CaMKII-α (see Materials and methods). The peptides were labeled with a fluorophore (Bodipy-FL maleimide) at the C-terminal end, and binding was monitored by changes in fluorescence polarization (Figure 3A). To a fixed volume of labeled peptide (2 nM), increasing concentrations of the hub was added, and the change in fluorescence polarization was monitored (Figure 3B). […]
(§1) The fluorescence polarization binding experiments were initiated by adding 15 μL of 2 nM BODIPY labeled peptides (buffer: 25 mM Tris at pH 8.0) to 15 μL of different concentrations of the human CaMKII-α hub domain (ranging from 0–1000 μM in 25 mM Tris at pH 8.0, 150 mM KCl, 10% glycerol and 0.02% Tween). […] The fluorescence polarization was read from 20 μL of these reaction mixtures in opaque black 96-well plates using a Synergy H4 hybrid microplate reader with a 485/20 nm excitation filter, and a 528/20 nm emission filter. […]

[3] = molecular target: N. vectensis CaMKII-B hub domain (Nematostella vectensis); assay: crystal structure; N. vectensis CaMKII-B hub; 2.5 M sodium chloride, 0.1 M acetate pH 4.2, 0.25 M lithium sulphate
human CaMKII-α hub [4] = molecular target: T1, human CaMKII-α hub; assay: Fluorescence polarization competition assay with unlabeled peptides; assay type: binding
Procedure: For the competition experiments, 2 nM of various labeled peptides were bound to 30 μM of the hub, resulting in high fluorescence polarization. Upon titration with the corresponding unlabeled versions of the peptides, the labeled peptides were competed off, and the fluorescence polarization decreased to the baseline value (Figure 3C–E). The value of the inhibition constant, IC50, is ~100 μM for the unlabeled peptides, whether phosphorylated or not. […]
as §1, with “filter. Error bars are calculated from the standard error of mean between replicates of experiments.” for “filter.”
where, A is the observed fluorescence polarization (FP) value, Af is the FP value for free labeled ligand, A0 is the FP value in the absence of unlabeled ligand, KD is the dissociation constant, [P]tot is the total protein concentration, and [L]tot is the total concentration of the unlabeled ligand. […]

[5] = molecular target: S. rosetta CaMKII hub domain (Salpingoeca rosetta); assay: SEC-MALS; S. rosetta hub at ∼3.2 mg/ml (~200 μM) on Superdex 200 10/300; 25 mM Tris pH 8.0, 150 mM KCl, 1 mM TCEP, 10% glycerol; 25°C
[6] = molecular target: N. vectensis CaMKII-A hub domain (Nematostella vectensis); assay: crystal structure; N. vectensis CaMKII-A hub; 0.2 M potassium thiocyanate, 20% w/v PEG 3350, pH 7.0
[7] = molecular target: S. rosetta CaMKII holoenzyme, full length, wild type (Salpingoeca rosetta); assay: native MS; full-length S. rosetta CaMKII at 12 μM; 1 M ammonium acetate pH 7.2
[8] = molecular target: S. rosetta CaMKII holoenzyme, full length, wild type (Salpingoeca rosetta); assay: native MS; full-length S. rosetta CaMKII at 3 μM; 1 M ammonium acetate pH 7.2
[9] = molecular target: S. rosetta CaMKII holoenzyme, full length, wild type (Salpingoeca rosetta); assay: SEC; analytical gel filtration, Superose 6 10/300, 25 mM Tris pH 8.0, 150 mM KCl, 10% glycerol, 1 mM TCEP or 2 mM DTT; injection at 700 nM subunits; tryptophan fluorescence
[10] = molecular target: S. rosetta CaMKII holoenzyme, full length, wild type (Salpingoeca rosetta); assay: native MS; full-length S. rosetta CaMKII at 48 μM; 1 M ammonium acetate pH 7.2
[11] = molecular target: B2; assay: fluorescence polarisation; competition: 2 nM BODIPY labelled peptide bound to 30 μM hub, unlabeled peptide 0-500 μM added; KD from a non-linear fit assuming one peptide site per subunit and equal KD of labelled and unlabeled peptide; settings: both partners purified
[12] = molecular target: the molecule itself; assay: native MS; human hub; nanoelectrospray Q-TOF, 1 M ammonium acetate pH 7.2; CID MS/MS at 30 V collision energy
[13] = molecular target: the molecule itself; assay: SEC; analytical gel filtration, Superose 6 10/300; elevated injection concentration of 3–5 μM; reinjection of the dodecamer/tetradecamer peak of the holoenzyme; pre-incubation with Mg2+-ATP for the holoenzyme
[14] = molecular target: the molecule itself; assay: native MS; F397A hub: 200 μM in 1 M ammonium acetate; 2 μM in 25 mM Tris, 1 mM TCEP, pH 8; 250 mM ammonium acetate, 25 mM Tris, 1 mM TCEP, pH 8; oligomer identity confirmed by CID
[15] = molecular target: the molecule itself; assay: crystal structure; human CaMKII-α hub with uncleaved tag; 35% (v/v) MPD, 0.1 M HEPES pH 7.3

hub-△kinase (hub, linker and autoinhibitory segment of human CaMKII-α, without the kinase domain) (domain or fragment)
percent of the sample in the dimer peak [1]: 35%
percent of the sample in the dodecamer/tetradecamer peak [1]: 65%
stoichiometry N [1]: 2

RRKLKGAILTTMLATRC [peptide A]
Kd (human CaMKII-α hub [2]): ~100 µM

N. vectensis CaMKII-B hub domain (domain or fragment)
stoichiometry N [3]: 14

LKEFNAERKLEGAILTTMLA [Peptide G, triple mutant of the residues 290-309 peptide, three positively charged residues replaced by Glu]
Ability to compete the binding of the labeled peptide (human CaMKII-α hub [4]; hub bound to labeled peptide A, competition with unlabeled mutant peptides (Figure 3F)): fails to compete

S. rosetta CaMKII hub domain (domain or fragment)
stoichiometry N [5]: 4

N. vectensis CaMKII-A hub domain (domain or fragment)
stoichiometry N [6]: 14

CC[C@H](C)[C@H](NC(=O)[C@H](C)NC(=O)CNC(=O)[C@H](CCCCN)NC(=O)[C@H](CC(C)C)NC(=O)[C@H](CCCCN)NC(=O)[C@H](CCCNC(=N)N)NC(=O)[C@H](CCCNC(=N)N)NC(=O)[C@H](C)NC(=O)[C@H](CC(N)=O)NC(=O)[C@H](Cc1ccccc1)NC(=O)[C@H](CCCCN)NC(=O)[C@H](CCCCN)NC(=O)[C@@H](N)CC(C)C)C(=O)N[C@@H](CC(C)C)C(=O)N[C@H](C(=O)N[C@H](C(=O)N[C@@H](CCSC)C(=O)N[C@@H](CC(C)C)C(=O)N[C@@H](C)C(=O)N[C@@H](CS)C(=O)O)[C@@H](C)OP(=O)(O)O)[C@@H](C)O [peptide D]
Kd (human CaMKII-α hub [4]; 2 nM labeled peptide bound to 30 μM hub, competed with unlabeled peptide 0-500 μM, 25 mM Tris pH 8.0, non-linear least squares fit, one peptide-binding site per subunit, labeled peptide A used for peptide B, read-out: KD from competition experiments): 52 µM

S. rosetta CaMKII holoenzyme, full length, wild type
stoichiometry N [7]: 4 and 6
stoichiometry N [8]: 2 and 4
stoichiometry N [9]: 2
stoichiometry N [10]: 4 and 6 and 8

B1
IC50 [11]: ~100 µM
Kd [11]: ~50 µM

B2
stoichiometry N [12]: 12 and 14

B3
stoichiometry N [13]: 2
stoichiometry N [14]: 14

B4
stoichiometry N [15]: 12

B5
IC50 [11]: ~100 µM
Kd [11]: ~90 µM

B6
IC50 [11]: ~100 µM
Kd [11]: ~60 µM
